The target in data set [1] is human insulin receptor A (human) (UniProt P06213). Description: radioligand binding.
The conditions of data set [2]: pigs; previously observed; cited from earlier work.

Take “NNC2215 (from UniProt P01308 90-110; P01308 25-53) (ligand)”: the fold increase in hIR-A affinity, 20 vs 0 mM glucose, without albumin in data set [1] was 6.8 fold.

Regarding insulin detemir, the “half-life after s.c. administration” value in data set [2] is 6.5 h.

(Values after paper PMC11499270 (Nature, 2024).)
